# T1: human neuromedin U receptor 1 (human, UniProt Q9HB89 24-426)
# T1 sequence (looked up): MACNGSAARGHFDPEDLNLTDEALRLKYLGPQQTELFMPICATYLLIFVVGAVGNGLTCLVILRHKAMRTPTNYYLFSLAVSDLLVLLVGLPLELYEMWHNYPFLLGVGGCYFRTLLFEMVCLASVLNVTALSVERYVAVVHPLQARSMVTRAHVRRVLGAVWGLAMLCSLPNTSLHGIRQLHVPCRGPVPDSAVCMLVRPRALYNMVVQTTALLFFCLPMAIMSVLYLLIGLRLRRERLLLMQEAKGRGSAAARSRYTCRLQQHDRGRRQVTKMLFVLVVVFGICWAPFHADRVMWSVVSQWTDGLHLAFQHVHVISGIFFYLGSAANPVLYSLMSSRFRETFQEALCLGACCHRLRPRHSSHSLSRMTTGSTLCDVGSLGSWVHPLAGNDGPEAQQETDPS
# Biological target: T1, human neuromedin U receptor 1
# Experiment: cell-based or functional assay
row,EC50 (hNMUR1) buffer,Binder
1,> 1000 nM,EEEXXXXXXXXXXXXXYFLXXARG (HELM PEPTIDE1{[O=C(O)CCCCCCCCCCCCCCCCC(=O)[*:2]].[gGlu].[gGlu].[gGlu].[Sar].[Sar].[Sar].[Sar].[Sar].[Sar].[Sar].[Sar].[Sar].[Sar].[Sar].[Sar].[O=C(CN1CCN(CCN[*:1])CC1)[*:2]].Y.F.[meL].[Nle].[Orn].[meA].R.G.[am]}$$$$V2.0; SMILES CCCC[C@H](NC(=O)[C@H](CC(C)C)N(C)C(=O)[C@H](Cc1ccccc1)NC(=O)[C@H](Cc1ccc(O)cc1)NC(=O)CN1CCN(CCNC(=O)CN(C)C(=O)CN(C)C(=O)CN(C)C(=O)CN(C)C(=O)CN(C)C(=O)CN(C)C(=O)CN(C)C(=O)CN(C)C(=O)CN(C)C(=O)CN(C)C(=O)CN(C)C(=O)CN(C)C(=O)CC[C@H](NC(=O)CC[C@H](NC(=O)CC[C@H](NC(=O)CCCCCCCCCCCCCCCCC(=O)O)C(=O)O)C(=O)O)C(=O)O)CC1)C(=O)N[C@@H](CCCN)C(=O)N(C)[C@@H](C)C(=O)N[C@@H](CCCNC(=N)N)C(=O)NCC(N)=O) [C18DA-gGlu3-Sar12-AEPipAc-Tyr-Phe-NMeLeu-Nle-Orn-NMeAla-Arg-Gly-NH2]
2,> 1000 nM,EEEXXXXXXXXXXXXXXXXYFLXXPRG (HELM PEPTIDE1{[O=C(O)CCCCCCCCCCCCCCCCC(=O)[*:2]].[gGlu].[gGlu].[gGlu].[Sar].[Sar].[Sar].[Sar].[Sar].[Sar].[Sar].[Sar].[Sar].[Sar].[Sar].[Sar].[Sar].[Sar].[Sar].[O=C(CN1CCN(CCN[*:1])CC1)[*:2]].Y.F.[meL].[Nle].[Orn].P.R.G.[am]}$$$$V2.0; SMILES CCCC[C@H](NC(=O)[C@H](CC(C)C)N(C)C(=O)[C@H](Cc1ccccc1)NC(=O)[C@H](Cc1ccc(O)cc1)NC(=O)CN1CCN(CCNC(=O)CN(C)C(=O)CN(C)C(=O)CN(C)C(=O)CN(C)C(=O)CN(C)C(=O)CN(C)C(=O)CN(C)C(=O)CN(C)C(=O)CN(C)C(=O)CN(C)C(=O)CN(C)C(=O)CN(C)C(=O)CN(C)C(=O)CN(C)C(=O)CN(C)C(=O)CC[C@H](NC(=O)CC[C@H](NC(=O)CC[C@H](NC(=O)CCCCCCCCCCCCCCCCC(=O)O)C(=O)O)C(=O)O)C(=O)O)CC1)C(=O)N[C@@H](CCCN)C(=O)N1CCC[C@H]1C(=O)N[C@@H](CCCNC(=N)N)C(=O)NCC(N)=O) [C18DA-gGlu3-Sar15-AEPipAc-Tyr-Phe-NMeLeu-Nle-Orn-Pro-Arg-Gly-NH2]
3,> 1000 nM,EEEXXXXXXXXXXXXXXXXYFLXXARG (HELM PEPTIDE1{[O=C(O)CCCCCCCCCCCCCCCCC(=O)[*:2]].[gGlu].[gGlu].[gGlu].[Sar].[Sar].[Sar].[Sar].[Sar].[Sar].[Sar].[Sar].[Sar].[Sar].[Sar].[Sar].[Sar].[Sar].[Sar].[O=C(CN1CCN(CCN[*:1])CC1)[*:2]].Y.F.[meL].[Nle].[Orn].[meA].R.G.[am]}$$$$V2.0; SMILES CCCC[C@H](NC(=O)[C@H](CC(C)C)N(C)C(=O)[C@H](Cc1ccccc1)NC(=O)[C@H](Cc1ccc(O)cc1)NC(=O)CN1CCN(CCNC(=O)CN(C)C(=O)CN(C)C(=O)CN(C)C(=O)CN(C)C(=O)CN(C)C(=O)CN(C)C(=O)CN(C)C(=O)CN(C)C(=O)CN(C)C(=O)CN(C)C(=O)CN(C)C(=O)CN(C)C(=O)CN(C)C(=O)CN(C)C(=O)CN(C)C(=O)CC[C@H](NC(=O)CC[C@H](NC(=O)CC[C@H](NC(=O)CCCCCCCCCCCCCCCCC(=O)O)C(=O)O)C(=O)O)C(=O)O)CC1)C(=O)N[C@@H](CCCN)C(=O)N(C)[C@@H](C)C(=O)N[C@@H](CCCNC(=N)N)C(=O)NCC(N)=O) [C18DA-gGlu3-Sar15-AEPipAc-Tyr-Phe-NMeLeu-Nle-Orn-NMeAla-Arg-Gly-NH2]
4,1000 nM,EEEXXXXXXXXXXYFLXXPRG (HELM PEPTIDE1{[O=C(O)CCCCCCCCCCCCCCCCC(=O)[*:2]].[gGlu].[gGlu].[gGlu].[Sar].[Sar].[Sar].[Sar].[Sar].[Sar].[Sar].[Sar].[Sar].[O=C(CN1CCN(CCN[*:1])CC1)[*:2]].Y.F.[meL].[Nle].[Dab].P.R.G.[am]}$$$$V2.0; SMILES CCCC[C@H](NC(=O)[C@H](CC(C)C)N(C)C(=O)[C@H](Cc1ccccc1)NC(=O)[C@H](Cc1ccc(O)cc1)NC(=O)CN1CCN(CCNC(=O)CN(C)C(=O)CN(C)C(=O)CN(C)C(=O)CN(C)C(=O)CN(C)C(=O)CN(C)C(=O)CN(C)C(=O)CN(C)C(=O)CN(C)C(=O)CC[C@H](NC(=O)CC[C@H](NC(=O)CC[C@H](NC(=O)CCCCCCCCCCCCCCCCC(=O)O)C(=O)O)C(=O)O)C(=O)O)CC1)C(=O)N[C@@H](CCN)C(=O)N1CCC[C@H]1C(=O)N[C@@H](CCCNC(=N)N)C(=O)NCC(N)=O) [C18DA-gGlu3-Sar9-AEPipAc-Tyr-Phe-NMeLeu-Nle-Dbu-Pro-Arg-Gly-NH2]
5,> 1000 nM,EEEXXXXXXXXXXXXXXXXYFLXXARG (HELM PEPTIDE1{[O=C(O)CCCCCCCCCCCCCCCCC(=O)[*:2]].[gGlu].[gGlu].[gGlu].[Sar].[Sar].[Sar].[Sar].[Sar].[Sar].[Sar].[Sar].[Sar].[Sar].[Sar].[Sar].[Sar].[Sar].[Sar].[O=C(CN1CCN(CCN[*:1])CC1)[*:2]].Y.F.[meL].[Nle].[Dab].[meA].R.G.[am]}$$$$V2.0; SMILES CCCC[C@H](NC(=O)[C@H](CC(C)C)N(C)C(=O)[C@H](Cc1ccccc1)NC(=O)[C@H](Cc1ccc(O)cc1)NC(=O)CN1CCN(CCNC(=O)CN(C)C(=O)CN(C)C(=O)CN(C)C(=O)CN(C)C(=O)CN(C)C(=O)CN(C)C(=O)CN(C)C(=O)CN(C)C(=O)CN(C)C(=O)CN(C)C(=O)CN(C)C(=O)CN(C)C(=O)CN(C)C(=O)CN(C)C(=O)CN(C)C(=O)CC[C@H](NC(=O)CC[C@H](NC(=O)CC[C@H](NC(=O)CCCCCCCCCCCCCCCCC(=O)O)C(=O)O)C(=O)O)C(=O)O)CC1)C(=O)N[C@@H](CCN)C(=O)N(C)[C@@H](C)C(=O)N[C@@H](CCCNC(=N)N)C(=O)NCC(N)=O) [C18DA-gGlu3-Sar15-AEPipAc-Tyr-Phe-NMeLeu-Nle-Dbu-NMeAla-Arg-Gly-NH2]
6,200 nM,EEEXXXXXXXXXXXXXYFLXRPRG (HELM PEPTIDE1{[O=C(O)CCCCCCCCCCCCCCCCC(=O)[*:2]].[gGlu].[gGlu].[gGlu].[Sar].[Sar].[Sar].[Sar].[Sar].[Sar].[Sar].[Sar].[Sar].[Sar].[Sar].[Sar].[O=C(CN1CCN(CCN[*:1])CC1)[*:2]].Y.F.[meL].[Nle].R.P.R.G.[am]}$$$$V2.0; SMILES CCCC[C@H](NC(=O)[C@H](CC(C)C)N(C)C(=O)[C@H](Cc1ccccc1)NC(=O)[C@H](Cc1ccc(O)cc1)NC(=O)CN1CCN(CCNC(=O)CN(C)C(=O)CN(C)C(=O)CN(C)C(=O)CN(C)C(=O)CN(C)C(=O)CN(C)C(=O)CN(C)C(=O)CN(C)C(=O)CN(C)C(=O)CN(C)C(=O)CN(C)C(=O)CN(C)C(=O)CC[C@H](NC(=O)CC[C@H](NC(=O)CC[C@H](NC(=O)CCCCCCCCCCCCCCCCC(=O)O)C(=O)O)C(=O)O)C(=O)O)CC1)C(=O)N[C@@H](CCCNC(=N)N)C(=O)N1CCC[C@H]1C(=O)N[C@@H](CCCNC(=N)N)C(=O)NCC(N)=O) [C18DA-gGlu3-Sar12-AEPipAc-Tyr-Phe-NMeLeu-Nle-Arg-Pro-Arg-Gly-NH2]

# Reference: patent US20240279278A1, “NMU RECEPTOR 2 AGONISTS” (Boehringer Ingelheim International GmbH, priority 2023, published 2024)
